system: MS2 coat protein; test: apparent KD of MS2 coat protein; higher = weaker reporter binding; conditions: Eterna round: R107; input ligand: theophylline 20 uM
Method in brief: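 Designed RNA switches were transcribed on-chip from Illumina sequencing clusters and titrated with SNAP-549-labelled MS2 coat protein in twofold steps from 0.7 or 1.5 nM up to 3 µM. Each step lasted 0.8–1.5 h at first and 10–20 min by the end, in 100 mM Tris-HCl pH 7.5, 80 mM KCl and 4 mM MgCl2, without or with constant ligand. Apparent KD is the median, for each design, of fits to normalised cluster binding curves.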

Row | Sequence | apparent KD of MS2 coat protein
1 | GAAGGAGUUAUGGGUACUCCUUCACUGGAAGGAGCGAGCGAAAGCUCAGGUAGGUCGCCAGAAACAUGAGGAUCACCCAUGUAAU [(A)''-(M)'-(A)'-(Arg1)-(Arg2)-(M1)-(M2)_Design6] | 59.5 nM
2 | UUUAAGAACCGAAGGAGCGCCAGAAAUAAGAACGCUACAUGAGGAUCACCCAUGUAAUAAGGGCAGGUAGGUCGCGGAAUUUAAA [last] | 33.4 nM
3 | UAGUACAUGAGGAUCACCCAUGUCGGAGGUCGAGGACCGGUACGGCCGCCACUCGGUCAUGCCCUACGAUACGACAGGAAUCUGU [theeternabot_sameState_MS2_Trp_A_28] | 36.5 nM
4 | UCUUGAGUUUCGGAUACCAGUGAUGUCGAUACAUGAGGAUCACCCAUGUUAGAGGAUGUACACCCUUGGCAGCCGGGUGUGGCGG [wswmullin] | 42.1 nM
5 | GGCCAGGCAGCGGCCGCCACUUAGUGGGCCGAAUGUCCUUUGCUGAACAUGAGGAUCACCCAUGUAAGGACCGGGCUGUUCCGCA [theeternabot_exclusion_MS2_Trp_B_30] | 42.3 nM
6 | UGUACUAUGUGAAGGAGCGAGAAGGAGCGAACAUGAGGAUCACCCAUGUACAGGUAGGUCGCUCAGGUAGGUCGCACAUAGUACU [ArgBS - Double aptamer] | 14.6 nM
7 | ACAUCUUGUACGGCCGCCACUAACAGAUUCAGCGUCGGAGCCAACUACAUGAGGAUCACCCAUGUUAGGACCGGGUACUGUCCAC [theeternabot_exclusion_MS2_Trp_B_47] | 20.7 nM
8 | UUCUACAUGAGGAUCACCCAUGUGGGUGAUACCAGCACUUUUUGGUGCCCUUGGCAGCACAUGAGAAUACCGUACGAUCGGUGAU [Isbiti] | 559 nM
9 | AUAACAUGAGGAUCACCCAUGUAAGCAGAUACCAGCUAGGAAACUAGCCCUUGGCAGCUGCAAUCAUGGGUGUGGUAUCUGCUAA [(M1)-(M2)-(T1)-(T2)-(M)'-(T)'_Design5] | 39.7 nM
10 | ACACAUGAGGAUCACCCAUGUGCCCAUGAAGGAGCGUGGGAAACCACAGGUAGGUCGCAUGACAUGAGGAUCACCCAUGUUUAUU [Astarte] | 44.9 nM
11 | ACACAAUACAUGAGGAUCACCCAUGUAAAACGAGGACCGGUACGGCCGCCACUCGAAUACUGUAAUCCUCGGAAUAUUAAGUGAA [JR_ExcTryptA_Sub002] | 57.1 nM
12 | AGCCACUCGAGUGAUCCUCACGAGUGGCUACGAGGACCGGUACGGCCGCCACUCGAAUUAACAUGAGGAUCACCCAUGUAAUCUA [Brourdmod07] | 227 nM
13 | UUAGAUAUGACAGAUACCAGCGUGUUGUAGAACAUGAGGAUCACCCAUGUAGUGAUCGUGCGCCCUUGGCAGCUGGUAUGUUUGG [7.W] | 341 nM
14 | AAUCAUGAAAACAUGACAUGAGGAUCACUCCGAGGACCGGUACGGCCGCCACUCGCGAGGAGGCGGACAUGAGGAUCACCCAUGU [#02 Tryptophan A Same State] | 265 nM
15 | CCAUGGUUGACGGCCGCCACUCAUUAGUCUUUGAGGUUGGCACAUGAGGAUCACCCAUGUCUGCAGAGGACCGGGUCUCGCCACA [theeternabot_sameState_MS2_Trp_B_15] | 67.3 nM
16 | CUGCCAUGCAGAGAUACCAGUGCGCUCAGCACAUGAGGAUCACCCAUGUUGGCUGCCGAUCACCCUUGGCAGCUCUGCAUGGCAG [#04 Same State - Theophylline B] | 12.5 nM
17 | CCAUAAGUACCGGUCCUCAGAUCCUCAUGACGAGGACCGGUACGGCCGCCACUCGAAACAUGAGGAUCACCCAUGUAAUAAUAUC [Brourdmod17] | 53.1 nM
18 | GCAUGCGAUACCGAUACCAGCUACUCCAUGGCGCUCCACAUGAGGAUCACCCAUGUAAAUAGCCCUUGGCAGCGGUAUUGAGAUG [Anrabegema] | 53.9 nM
19 | AUACAUGAGGAUCACCCAUGUUACACUGAAGGAGCGACAUGUUUGUCAGGUAGGUCGCAGUGAAGUUUAAUAAUUCUUUGAUCUU [#06 Same State - Arginine A] | 36.4 nM
20 | CCGUCACAUGAGGAUCACCCAUGUGCGGAAGGAGCGGACGAUAGUCCAGGUAGGUCGCCGUAUAGCCAAUGACCAGCAGUGUCGG [XARG-A 22] | 16.6 nM

same assay, conditions: Eterna round: R107; input ligand: theophylline 2 mM

Row | Sequence | apparent KD of MS2 coat protein
21 | UUGCUCUCUUCGGCCGCCACUACACGCGAGUUGACGACUGGCGGACAUGAGGAUCACCCAUGUCAUAGGACCGGGAAUCACGCUG [theeternabot_sameState_MS2_Trp_B_11] | 15.2 nM
22 | GGGUACAUCGCGGCCGCCACUCAUGUAAAUGCGUGAGGAUCACCCAUGCCGAUGGAGACAUCGGAGAGGACCGGGUGAUGUACCG | 52.7 nM
23 | AAAGGAAGGUAAAAUAAAACUACAUGUGAAGGAGCGCCCGAAAGGGCAGGUAGGUCGCACAUGAGGAUCACCCAUGUCCUUCCAA [ArgEX 6 #SwitchBubble] | 439 nM
24 | ACAUGAGGAUCACCCAUGUACAUCACCCGACGAGGACCGGUACGGCCGCCACUCGGGUAUAUAUAUACAUCGGGUGAUUUUGCAU [#21 Tryptophan A Same State] | 79.5 nM
25 | GGUACAUGAGGAUCACCCAUGUAUUGGUACCGAGGACCGGUACGGCCGCCACUCGCAUGACAUGAGGAUCACCCAUGUGAAACCU [SSTA DOUBLE!!! :-D #12] | 59.9 nM
26 | AUACAUGAGGAUCACCCAUGUAAAGUUGAAGGAGCGACCAGAGGGUCAGGUAGGUCGCAACACAUGAGGAUCACCCAUGUAUCGA [DOUBLE!!! :-D #6] | 79.4 nM
27 | UACAUGAGGAUCACCCAUGUCUGAACUGAAGGAGCGCUAAACAAGGCAGGUAGGUCGCGGAAUUUUGUGUGCAUAUGCAUAUGGG [9.K] | 36.5 nM
28 | AUUAUAGUUUAUAAGGAAAUUGAAACAGAAGGAGCGUGAGUAAUCACAGGUAGGUCGCUGGUAGUACAUGAGGAUCACCCAUGUU [JR_Nu_SSArginiA_Sub019] | 26.5 nM
29 | AGCGCGGUGAUGGUAGCCGGACGCUAGGUACGAGGACCGGUACGGCCGCCACUCGGAGUCCUACGACAUGAGGAUCACCCAUGUA [Same State Trp A GF16] | 111 nM
30 | UGUACCAUGUCGGCCGCCACUCAUGAUAAGCAUGAGGAUCACCCAUGUAGCGUCAAAGACGCUAUGAGGACCGGGACAUGGUACU [TryBS Zipper 2] | 41.2 nM
31 | AAUAUAUAGACGGCCGCCACUGGAACCAAUACAUGAGGAUCACCCAUGUGAAAAGGAUAGGUUCACAGGACCGGGUCUUCAUGUA [SS Tryp B Tesla 1.3] | 61 nM
32 | GAUUAAACAUGAGGAUCACCCAUGUAUAUACGAGGACCGGUACGGCCGCCACUCGAAAACGAGUAUCCUCGAAUAAACAUGAUAA [AK 2 SS Trypt (A)] | 52.8 nM
33 | UGGUACAUGGCGGCCGCCACUUCACGUAAAAUAAAAACGUGAGGAUCACCCACGUAAUAAGUUGGGAGGACCGGGUCAUGUACCU | 491 nM
34 | UCGCGAGAGGGAAGGAGCGUCAGCUGAGUCACAUGAGGAUCACCCAUGUCGCACAUAGUGUGACAGGUAGGUCGCCCUCCGCCCU [Leinticees] | 192 nM
35 | GAAGGAGUUAUGGGUACUCCUUCACUGGAAGGAGCGAGCGAAAGCUCAGGUAGGUCGCCAGAAACAUGAGGAUCACCCAUGUAAU [(A)''-(M)'-(A)'-(Arg1)-(Arg2)-(M1)-(M2)_Design6] | 65.3 nM
36 | UUUAAGAACCGAAGGAGCGCCAGAAAUAAGAACGCUACAUGAGGAUCACCCAUGUAAUAAGGGCAGGUAGGUCGCGGAAUUUAAA [last] | 24.7 nM
